Results as given in the supplement of paper PMC9170038.

Tested on: MS2 coat protein
Assay: apparent KD of MS2 coat protein; designed switch direction (-1 OFF switch, 1 ON switch): -1; higher = weaker reporter binding
Method in brief: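 Three titration conditions were used: no input, 200 uM small-molecule ligand, and an oligonucleotide input. In each, SNAP-549-labelled MS2 coat protein was raised from 0.7 or 1.5 nM, doubling, to 3 µM over designed RNA switches transcribed on Illumina chips by stalled E. coli RNA polymerase. Curve fits of normalised cluster fluorescence gave values whose per-design median over clusters is the apparent KD.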

[1] = Eterna round: R95, input ligand: microRNA oligo, concentration not stated
[2] = Eterna round: R95, input ligand: FMN 200 uM
[3] = Eterna round: R95, input ligand: none
[4] = input ligand: microRNA oligo, concentration not stated

Sequence	apparent KD of MS2 coat protein [1]	apparent KD of MS2 coat protein (input ligand: FMN 200 uM)	apparent KD of MS2 coat protein (input ligand: none)	apparent KD of MS2 coat protein [2]	apparent KD of MS2 coat protein [3]	apparent KD of MS2 coat protein [4]
CUUUCGUGAGGAUAUCAGUAGUAAAUAAAUAAAAUUACUACUGAGAAGGCACAUGAGGAUCACCCAUGUUCCUU [salish99_ex3_r3_095] (puzzle: Exclusion 4)	12.9 nM					
UUUAGUUCAGGAUAUGUAGAUUUUAACAUGAGGAUCACCCAUGUAGAUCCUGAUCCUGCUACAGAAGGGAAAAUUU [Mat - Exclusion 5 - Eli Mod - D9] (Eterna round: R97, puzzle: Exclusion 5)		24.4 nM	25.6 nM			
CACAUGUCAGGAUAUGGUCAAGACACAGAAUUAGCUGCGAGCCAGAAGGGACAUGAGGAUCACCCAUGUUCCUG [Eternabot (L1) Solution 58] (Eterna round: R97, puzzle: Exclusion 4)		19.5 nM	16.3 nM			
AAGAAACAUGAGGAUCACCCAUGUGAGGAUAUGACUAAGAAAAGAAAAGAAAGAAGAUUCAGAAGGCACAAAGG [salish99-ex1_r3_062] (puzzle: Exclusion 1)	42.3 nM			91.2 nM	46.1 nM	
CUACUGAAGCUUUGCUUUAGUCGUACAUGAGGAUCACCCAUGUAGGAUAUACAUGAGGAUCACCCAUAGAAGGAUAGAGUGAUC [salish99_ExNG3_r04_602] (Eterna round: R96, puzzle: Exclusion NG 3)		36.1 nM	38.6 nM			31.2 nM
UCGCUCCGUGUAGGAUAUCGCCGUUCUAUUCGGCGAGAAGGACAUGAGGAUCACCCAUGUAUGUUAUUAUCACGCGUGGCGCAC [Design 57] (Eterna round: R96, puzzle: Exclusion NG 1)		21.5 nM	19.6 nM			13.9 nM
GAAGCACAUGAGGAUCACCCAUGUGAGGAUAUCCGUCUGGUCCGGCCGGGCCAGUACCGGAGAAGGCGCGUCGA [Excls1-Va] (puzzle: Exclusion 1)	27.6 nM					
UCGCUGCGAGGAUAUACGUGCGCGCGCGCGCGCGCGCGCGUACAUGAGGAUCACCCAUGUAGAAGGCGCUCUGC [Apr-15 SS2-2] (puzzle: Exclusion 2)	22.9 nM					
AGUAGAUCUACGCUUGCGUGGAUCUGCAUUGCAAGUGUAACAUGAGGAUCACCCAUGUCCUCAUUUGCUCGUCUUAU [JL turnoff v2 99.02] (puzzle: Sensor v3, turn-off variant 2)	277 nM			54.4 nM	54.2 nM	
UUGUUGUAUGUAGGAUAUGCGUAUUAUUAUUGGGCAGAAGGACAUGAGGAUCACCCAUGUAUGUUGUUGUUAUAUAUUAUAUAU [Title] (Eterna round: R96, puzzle: Exclusion NG 1)		66.4 nM	47.8 nM			35.8 nM
CAGUACUGAGGAUAUACAUGAGGAUCACCCAUGUGUGUGAAAUUUAUGUGGUCGUAAUGUAGAAGGCAGUACUG [JR_Ex3_Sub028] (Eterna round: R97, puzzle: Exclusion 3)		30.5 nM	62.9 nM			
UGAUCAGACCGAGGAUAUAUAUGUAGGACCCACGUGAGUGGGUCCAGAACAUGAGGAUCACCCAUGUAGAAGGCGGUCUGAUCU [JL ENG2 1.88] (Eterna round: R96, puzzle: Exclusion NG 2)		19 nM	16.2 nM			11.5 nM
GCUAAACAUGUAGGAUAUGCGUGGCGAAGCUAUGCAGAAGGACAUGAGGAUCACCCAUGUUUUAGCGUCUGCGUACAGAUGCGU [JL ENG1 1.43] (Eterna round: R96, puzzle: Exclusion NG 1)		318 nM	31.6 nM			28 nM
UUCUAUUCAGGAUAUACAUGAGGAUCACCCAUGUGAUUUGCCUCGCGGAAGACUAGACGUAGAAGGGAGUCCCU [Eternabot (L2) Solution 7] (Eterna round: R97, puzzle: Exclusion 3)		91.3 nM	111 nM			
CGUGACUCAGGAUAUCUAUAAUAUCACAUGAGGAUCACCCAUGUCCAGCAAUAGCUGGAGGGAGAAGGGAGUCACG [Fiskers Ex 5 - 40] (puzzle: Exclusion 5)	195 nM					
GGUUAGCGAGGAUAUACAUGAGGAUCACCCAUGUGAUCCUAAGGCUGAUCAAGCCUAUGUAGAAGGCGCAAAUC [salish99_ex3_r4_008] (Eterna round: R97, puzzle: Exclusion 3)		40.1 nM	227 nM			
GUGUACGGAGGAUAUAUGUGGGCAGCAUACGCUGCAGCUUCACAUGAGGAUCACCCAUGUAGAAGGCUGUGCAC [JL-ex2-2.11 Brourd mod] (puzzle: Exclusion 2)	20.1 nM					
CAUGAUCUUCGGAUCAUGUACAUGAGGAUCACCCAUGUUACGAGCAGAUCUUCAUACAAGCUUUUUGCUCGUCUUAU [Sensor v3 - Turn-off variant 1 - 34] (puzzle: Sensor v3, turn-off variant 1)	64.9 nM			34.5 nM	40.4 nM	
AAAUGGGCGUAGGAUAUGAGAUGGUCUAGCAGCUCAGAAGGACGCACAUGAGGAUCACCCAUGUGAUCGGACUA [Celebidi] (Eterna round: R96, puzzle: Exclusion 6)		281 nM	34.8 nM			27.8 nM
ACAUGACUAGGAUAUACAUGAGGAUCACCCAUGUGACCACAAACAUGCUAUAUGGGCAGUAGAAGGAGUUGGAA [Eternabot (L1) Solution 86] (Eterna round: R97, puzzle: Exclusion 3)		82.9 nM	75.9 nM			
GGCAUGCAAGGAUAUACUUGCAGUGAUAUUCGAUAAAGUCUACUUGAGGAUCACCCAAGUAGAAGGUGCAUGCC [Exclusion 2 (Mod6 JL EX2 4.74 Vienna UCT mod of Mamaed)] (Eterna round: R97, puzzle: Exclusion 2)		35 nM	25.8 nM			
GGUACUCAAAGAGUACCAAUACGAACAUGAGGAUCACCCAUGUAGGAUAUGCUACUCAAAGAGUAGCAGAAGGAUAUGAACCUC [Far Half Aptamer v10] (Eterna round: R96, puzzle: Exclusion NG 3)		407 nM	227 nM			204 nM
AGAUGUUAAGAGGAUAUCAGCCGAAACCGGCAGUGAGAAGGCUUGACAUGAGGAUCACCCAUGUUUUGCGGUAA [Intebiabe] (Eterna round: R97, puzzle: Exclusion 6)		300 nM	35.6 nM			
UUGUUGUGUGUAGGAUAUGCAUAUUAUUAUUAUGCAGAAGGACAUGAGGAUCACCCAUGUAUAUUAUUAUUAUAUAUUAUAUAU [Title] (Eterna round: R96, puzzle: Exclusion NG 1)						22.6 nM
GGUGGGCUAGGAUAUGCUUUGGGAGGGCAUUCCUUCGAUAAACUUGAGGAUCACCCAAGUAGAAGGAGCUUGCC [salish99_ex2_r4_022] (Eterna round: R97, puzzle: Exclusion 2)		33.9 nM	15.3 nM			
AUUUAGAGAGGAUAUAUAUUGUGAAACAUGAGGAUCACCCAUGUAAUAAUAUGGAUAUAAAUAGAAGGCUCAUUUU [Mat - Exclusion 5 - JL mod - D11] (puzzle: Exclusion 5)	21.2 nM			26.1 nM	25.1 nM	
